Test results from the RNAGym collection of RNA variant scans (doi:10.1021/acssynbio.7b00057).

B1: Pistol ribozyme (parent)
chain: GGGUCGUUGUUCCAUAAUCGCGUGGAUAUGGCACGCAAGUUUCUACCGGGCACCGUAAAUGUCCGACUGGAGCCGUUCGGGCGGCUAUAAACAGACCUCAGGCCCGAAGCGUGGCGGCACCUGCCGCCGGUGGUAAAAAAGAUCGGAAGAGCACACGUCU

Variants of: B1
Assay: aptazyme ON/OFF ratio, guanine; higher = stronger switching; co-transcriptional cleavage with and without guanine

Variant | aptazyme ON/OFF ratio
GGGUCGAGGGCAUAUAAUCGCGUGGAUAUGGCACGCAAGUUUCUACCGGGCACCGUAAAUGUCCGACUGGAGCCGUUCGGGCGGCUAUAAACAGACCUCAGGCCCGAAGCGUGGCGGCACCUGCCGCCGGUGGUAAAAAAGAUCGGAAGAGCACACGUCU [U7A U8G U10G U11C C12A C13U] | 1.51
GGGUCGAGGGCAGAUAAUCGCGUGGAUAUGGCACGCAAGUUUCUACCGGGCACCGUAAAUGUCCGACUGGAGCCGUUCGGGCGGCUAUAAACAGACCUCAGGCCCGAAGCGUGGCGGCACCUGCCGCCGGUGGUAAAAAAGAUCGGAAGAGCACACGUCU [U7A U8G U10G U11C C12A C13G] | 1.11
GGGUCGAGGGCAAAUAAUCGCGUGGAUAUGGCACGCAAGUUUCUACCGGGCACCGUAAAUGUCCGACUGGAGCCGUUCGGGCGGCUAUAAACAGACCUCAGGCCCGAAGCGUGGCGGCACCUGCCGCCGGUGGUAAAAAAGAUCGGAAGAGCACACGUCU [U7A U8G U10G U11C C12A C13A] | 1.39
GGGUCGAGGGCUAAUAAUCGCGUGGAUAUGGCACGCAAGUUUCUACCGGGCACCGUAAAUGUCCGACUGGAGCCGUUCGGGCGGCUAUAAACAGACCUCAGGCCCGAAGCGUGGCGGCACCUGCCGCCGGUGGUAAAAAAGAUCGGAAGAGCACACGUCU [U7A U8G U10G U11C C12U C13A] | 0.988
GGGUCGAGGGCUGAUAAUCGCGUGGAUAUGGCACGCAAGUUUCUACCGGGCACCGUAAAUGUCCGACUGGAGCCGUUCGGGCGGCUAUAAACAGACCUCAGGCCCGAAGCGUGGCGGCACCUGCCGCCGGUGGUAAAAAAGAUCGGAAGAGCACACGUCU [U7A U8G U10G U11C C12U C13G] | 1.11
GGGUCGAGGGCUUAUAAUCGCGUGGAUAUGGCACGCAAGUUUCUACCGGGCACCGUAAAUGUCCGACUGGAGCCGUUCGGGCGGCUAUAAACAGACCUCAGGCCCGAAGCGUGGCGGCACCUGCCGCCGGUGGUAAAAAAGAUCGGAAGAGCACACGUCU [U7A U8G U10G U11C C12U C13U] | 1.41
GGGUCGAGGGAUGAUAAUCGCGUGGAUAUGGCACGCAAGUUUCUACCGGGCACCGUAAAUGUCCGACUGGAGCCGUUCGGGCGGCUAUAAACAGACCUCAGGCCCGAAGCGUGGCGGCACCUGCCGCCGGUGGUAAAAAAGAUCGGAAGAGCACACGUCU [U7A U8G U10G U11A C12U C13G] | 0.975
GGGUCGAGGGAUAAUAAUCGCGUGGAUAUGGCACGCAAGUUUCUACCGGGCACCGUAAAUGUCCGACUGGAGCCGUUCGGGCGGCUAUAAACAGACCUCAGGCCCGAAGCGUGGCGGCACCUGCCGCCGGUGGUAAAAAAGAUCGGAAGAGCACACGUCU [U7A U8G U10G U11A C12U C13A] | 1.21
GGGUCGAGGGAUUAUAAUCGCGUGGAUAUGGCACGCAAGUUUCUACCGGGCACCGUAAAUGUCCGACUGGAGCCGUUCGGGCGGCUAUAAACAGACCUCAGGCCCGAAGCGUGGCGGCACCUGCCGCCGGUGGUAAAAAAGAUCGGAAGAGCACACGUCU [U7A U8G U10G U11A C12U C13U] | 1.15
GGGUCGAGGGCACAUAAUCGCGUGGAUAUGGCACGCAAGUUUCUACCGGGCACCGUAAAUGUCCGACUGGAGCCGUUCGGGCGGCUAUAAACAGACCUCAGGCCCGAAGCGUGGCGGCACCUGCCGCCGGUGGUAAAAAAGAUCGGAAGAGCACACGUCU [U7A U8G U10G U11C C12A] | 1.21
GGGUCGAGGGCGCAUAAUCGCGUGGAUAUGGCACGCAAGUUUCUACCGGGCACCGUAAAUGUCCGACUGGAGCCGUUCGGGCGGCUAUAAACAGACCUCAGGCCCGAAGCGUGGCGGCACCUGCCGCCGGUGGUAAAAAAGAUCGGAAGAGCACACGUCU [U7A U8G U10G U11C C12G] | 1.14
GGGUCGAGGGCUCAUAAUCGCGUGGAUAUGGCACGCAAGUUUCUACCGGGCACCGUAAAUGUCCGACUGGAGCCGUUCGGGCGGCUAUAAACAGACCUCAGGCCCGAAGCGUGGCGGCACCUGCCGCCGGUGGUAAAAAAGAUCGGAAGAGCACACGUCU [U7A U8G U10G U11C C12U] | 1.53
GGGUCGAGGGCCCAUAAUCGCGUGGAUAUGGCACGCAAGUUUCUACCGGGCACCGUAAAUGUCCGACUGGAGCCGUUCGGGCGGCUAUAAACAGACCUCAGGCCCGAAGCGUGGCGGCACCUGCCGCCGGUGGUAAAAAAGAUCGGAAGAGCACACGUCU [U7A U8G U10G U11C] | 1.39
GGGUCGAGGGACCAUAAUCGCGUGGAUAUGGCACGCAAGUUUCUACCGGGCACCGUAAAUGUCCGACUGGAGCCGUUCGGGCGGCUAUAAACAGACCUCAGGCCCGAAGCGUGGCGGCACCUGCCGCCGGUGGUAAAAAAGAUCGGAAGAGCACACGUCU [U7A U8G U10G U11A] | 2.88
GGGUCGAGGGAAUAUAAUCGCGUGGAUAUGGCACGCAAGUUUCUACCGGGCACCGUAAAUGUCCGACUGGAGCCGUUCGGGCGGCUAUAAACAGACCUCAGGCCCGAAGCGUGGCGGCACCUGCCGCCGGUGGUAAAAAAGAUCGGAAGAGCACACGUCU [U7A U8G U10G U11A C12A C13U] | 1.34
GGGUCGAGGGAAGAUAAUCGCGUGGAUAUGGCACGCAAGUUUCUACCGGGCACCGUAAAUGUCCGACUGGAGCCGUUCGGGCGGCUAUAAACAGACCUCAGGCCCGAAGCGUGGCGGCACCUGCCGCCGGUGGUAAAAAAGAUCGGAAGAGCACACGUCU [U7A U8G U10G U11A C12A C13G] | 1.27
GGGUCGAGGGAAAAUAAUCGCGUGGAUAUGGCACGCAAGUUUCUACCGGGCACCGUAAAUGUCCGACUGGAGCCGUUCGGGCGGCUAUAAACAGACCUCAGGCCCGAAGCGUGGCGGCACCUGCCGCCGGUGGUAAAAAAGAUCGGAAGAGCACACGUCU [U7A U8G U10G U11A C12A C13A] | 1.55
GGGUCGAGGGUUAAUAAUCGCGUGGAUAUGGCACGCAAGUUUCUACCGGGCACCGUAAAUGUCCGACUGGAGCCGUUCGGGCGGCUAUAAACAGACCUCAGGCCCGAAGCGUGGCGGCACCUGCCGCCGGUGGUAAAAAAGAUCGGAAGAGCACACGUCU [U7A U8G U10G C12U C13A] | 1.11

Variant | aptazyme ON/OFF ratio
GGGUCGAGGGUUGAUAAUCGCGUGGAUAUGGCACGCAAGUUUCUACCGGGCACCGUAAAUGUCCGACUGGAGCCGUUCGGGCGGCUAUAAACAGACCUCAGGCCCGAAGCGUGGCGGCACCUGCCGCCGGUGGUAAAAAAGAUCGGAAGAGCACACGUCU [U7A U8G U10G C12U C13G] | 1.28
GGGUCGAGGGUUUAUAAUCGCGUGGAUAUGGCACGCAAGUUUCUACCGGGCACCGUAAAUGUCCGACUGGAGCCGUUCGGGCGGCUAUAAACAGACCUCAGGCCCGAAGCGUGGCGGCACCUGCCGCCGGUGGUAAAAAAGAUCGGAAGAGCACACGUCU [U7A U8G U10G C12U C13U] | 1.26
GGGUCGAGGGCCAAUAAUCGCGUGGAUAUGGCACGCAAGUUUCUACCGGGCACCGUAAAUGUCCGACUGGAGCCGUUCGGGCGGCUAUAAACAGACCUCAGGCCCGAAGCGUGGCGGCACCUGCCGCCGGUGGUAAAAAAGAUCGGAAGAGCACACGUCU [U7A U8G U10G U11C C13A] | 1.11
GGGUCGAGGGAGAAUAAUCGCGUGGAUAUGGCACGCAAGUUUCUACCGGGCACCGUAAAUGUCCGACUGGAGCCGUUCGGGCGGCUAUAAACAGACCUCAGGCCCGAAGCGUGGCGGCACCUGCCGCCGGUGGUAAAAAAGAUCGGAAGAGCACACGUCU [U7A U8G U10G U11A C12G C13A] | 1.24
GGGUCGAGGGAGUAUAAUCGCGUGGAUAUGGCACGCAAGUUUCUACCGGGCACCGUAAAUGUCCGACUGGAGCCGUUCGGGCGGCUAUAAACAGACCUCAGGCCCGAAGCGUGGCGGCACCUGCCGCCGGUGGUAAAAAAGAUCGGAAGAGCACACGUCU [U7A U8G U10G U11A C12G C13U] | 1.46
GGGUCGAGGGAGGAUAAUCGCGUGGAUAUGGCACGCAAGUUUCUACCGGGCACCGUAAAUGUCCGACUGGAGCCGUUCGGGCGGCUAUAAACAGACCUCAGGCCCGAAGCGUGGCGGCACCUGCCGCCGGUGGUAAAAAAGAUCGGAAGAGCACACGUCU [U7A U8G U10G U11A C12G C13G] | 1.46
GGGUCGAGGGAGCAUAAUCGCGUGGAUAUGGCACGCAAGUUUCUACCGGGCACCGUAAAUGUCCGACUGGAGCCGUUCGGGCGGCUAUAAACAGACCUCAGGCCCGAAGCGUGGCGGCACCUGCCGCCGGUGGUAAAAAAGAUCGGAAGAGCACACGUCU [U7A U8G U10G U11A C12G] | 1.59
GGGUCGAGGGAUCAUAAUCGCGUGGAUAUGGCACGCAAGUUUCUACCGGGCACCGUAAAUGUCCGACUGGAGCCGUUCGGGCGGCUAUAAACAGACCUCAGGCCCGAAGCGUGGCGGCACCUGCCGCCGGUGGUAAAAAAGAUCGGAAGAGCACACGUCU [U7A U8G U10G U11A C12U] | 1.33
GGGUCGAGGGAACAUAAUCGCGUGGAUAUGGCACGCAAGUUUCUACCGGGCACCGUAAAUGUCCGACUGGAGCCGUUCGGGCGGCUAUAAACAGACCUCAGGCCCGAAGCGUGGCGGCACCUGCCGCCGGUGGUAAAAAAGAUCGGAAGAGCACACGUCU [U7A U8G U10G U11A C12A] | 1.09
GGGUCGAGGGUCGAUAAUCGCGUGGAUAUGGCACGCAAGUUUCUACCGGGCACCGUAAAUGUCCGACUGGAGCCGUUCGGGCGGCUAUAAACAGACCUCAGGCCCGAAGCGUGGCGGCACCUGCCGCCGGUGGUAAAAAAGAUCGGAAGAGCACACGUCU [U7A U8G U10G C13G] | 1.14
GGGUCGAGGGUCUAUAAUCGCGUGGAUAUGGCACGCAAGUUUCUACCGGGCACCGUAAAUGUCCGACUGGAGCCGUUCGGGCGGCUAUAAACAGACCUCAGGCCCGAAGCGUGGCGGCACCUGCCGCCGGUGGUAAAAAAGAUCGGAAGAGCACACGUCU [U7A U8G U10G C13U] | 1.55
GGGUCGAGGGUCAAUAAUCGCGUGGAUAUGGCACGCAAGUUUCUACCGGGCACCGUAAAUGUCCGACUGGAGCCGUUCGGGCGGCUAUAAACAGACCUCAGGCCCGAAGCGUGGCGGCACCUGCCGCCGGUGGUAAAAAAGAUCGGAAGAGCACACGUCU [U7A U8G U10G C13A] | 1.26
GGGUCGAGGGACAAUAAUCGCGUGGAUAUGGCACGCAAGUUUCUACCGGGCACCGUAAAUGUCCGACUGGAGCCGUUCGGGCGGCUAUAAACAGACCUCAGGCCCGAAGCGUGGCGGCACCUGCCGCCGGUGGUAAAAAAGAUCGGAAGAGCACACGUCU [U7A U8G U10G U11A C13A] | 1.4
GGGUCGAGGGACUAUAAUCGCGUGGAUAUGGCACGCAAGUUUCUACCGGGCACCGUAAAUGUCCGACUGGAGCCGUUCGGGCGGCUAUAAACAGACCUCAGGCCCGAAGCGUGGCGGCACCUGCCGCCGGUGGUAAAAAAGAUCGGAAGAGCACACGUCU [U7A U8G U10G U11A C13U] | 1.3
GGGUCGAGGGACGAUAAUCGCGUGGAUAUGGCACGCAAGUUUCUACCGGGCACCGUAAAUGUCCGACUGGAGCCGUUCGGGCGGCUAUAAACAGACCUCAGGCCCGAAGCGUGGCGGCACCUGCCGCCGGUGGUAAAAAAGAUCGGAAGAGCACACGUCU [U7A U8G U10G U11A C13G] | 1.27
GGGUCGAGGGCGGAUAAUCGCGUGGAUAUGGCACGCAAGUUUCUACCGGGCACCGUAAAUGUCCGACUGGAGCCGUUCGGGCGGCUAUAAACAGACCUCAGGCCCGAAGCGUGGCGGCACCUGCCGCCGGUGGUAAAAAAGAUCGGAAGAGCACACGUCU [U7A U8G U10G U11C C12G C13G] | 1.22
GGGUCGAGGGCGAAUAAUCGCGUGGAUAUGGCACGCAAGUUUCUACCGGGCACCGUAAAUGUCCGACUGGAGCCGUUCGGGCGGCUAUAAACAGACCUCAGGCCCGAAGCGUGGCGGCACCUGCCGCCGGUGGUAAAAAAGAUCGGAAGAGCACACGUCU [U7A U8G U10G U11C C12G C13A] | 1.22
GGGUCGAGGGCGUAUAAUCGCGUGGAUAUGGCACGCAAGUUUCUACCGGGCACCGUAAAUGUCCGACUGGAGCCGUUCGGGCGGCUAUAAACAGACCUCAGGCCCGAAGCGUGGCGGCACCUGCCGCCGGUGGUAAAAAAGAUCGGAAGAGCACACGUCU [U7A U8G U10G U11C C12G C13U] | 1.56
